Data as given in publication PMC6936867.

Experiments:
[1] = target: FcγRIIIa F158 (UniProt P08637); assay: SPR
[2] = target: FcγRIIIa V158; assay: SPR
[3] = target: FcγRIIa H131 (UniProt P12318); assay: SPR
[4] = target: FcγRIIa R131 (UniProt P12318); assay: SPR
[5] = target: FcγRIIb (UniProt P31994); assay: SPR
[6] = target: CAP256-VRC26.25 IgG3*17 (human); assay: SPR; antibodies printed at 200 nM in 25 mM sodium acetate pH 5.0 on an NHS/EDC-activated carboxymethyldextran gold prism (CFM, MX96 array reader); FcγRs injected in PBS + 0.05% Tween 20, 8-part 3-fold dilution series generally starting between 10 and 50 μM, 5 min association, 5 min dissociation; kinetic global analysis for KD

FcγRIIa R131, sequence (P12318 34-217 H167R): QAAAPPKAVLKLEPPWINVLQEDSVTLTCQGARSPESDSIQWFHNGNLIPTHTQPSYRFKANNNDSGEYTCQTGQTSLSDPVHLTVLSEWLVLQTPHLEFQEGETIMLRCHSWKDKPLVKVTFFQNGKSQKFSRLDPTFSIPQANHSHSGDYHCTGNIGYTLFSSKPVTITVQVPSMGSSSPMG
FcγRIIa H131, sequence (P12318 34-317): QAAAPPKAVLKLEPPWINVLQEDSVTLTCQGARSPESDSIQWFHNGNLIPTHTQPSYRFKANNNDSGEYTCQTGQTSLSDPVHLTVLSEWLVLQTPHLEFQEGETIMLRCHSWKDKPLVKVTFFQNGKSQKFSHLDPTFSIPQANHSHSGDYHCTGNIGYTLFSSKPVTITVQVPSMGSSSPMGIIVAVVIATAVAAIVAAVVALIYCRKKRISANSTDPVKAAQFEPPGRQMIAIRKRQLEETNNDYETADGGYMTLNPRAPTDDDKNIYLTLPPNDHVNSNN
FcγRIIb, sequence (P31994 43-310): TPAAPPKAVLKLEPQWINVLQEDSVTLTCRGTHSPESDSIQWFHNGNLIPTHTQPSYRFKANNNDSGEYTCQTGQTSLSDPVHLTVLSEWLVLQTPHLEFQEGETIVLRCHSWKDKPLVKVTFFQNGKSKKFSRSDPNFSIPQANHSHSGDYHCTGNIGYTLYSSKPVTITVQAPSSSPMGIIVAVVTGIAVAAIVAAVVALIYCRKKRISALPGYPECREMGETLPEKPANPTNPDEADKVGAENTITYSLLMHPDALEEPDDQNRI
FcγRIIIa F158, sequence (P08637 17-254): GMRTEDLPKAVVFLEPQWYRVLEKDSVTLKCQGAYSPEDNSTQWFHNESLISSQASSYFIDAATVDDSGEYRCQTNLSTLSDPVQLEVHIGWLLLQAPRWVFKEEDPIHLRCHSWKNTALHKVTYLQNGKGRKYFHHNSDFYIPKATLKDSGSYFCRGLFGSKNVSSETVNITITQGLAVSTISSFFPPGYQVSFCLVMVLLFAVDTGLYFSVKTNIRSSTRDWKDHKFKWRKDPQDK
FcγRIIIa V158, sequence (P08637 17-208 F176V): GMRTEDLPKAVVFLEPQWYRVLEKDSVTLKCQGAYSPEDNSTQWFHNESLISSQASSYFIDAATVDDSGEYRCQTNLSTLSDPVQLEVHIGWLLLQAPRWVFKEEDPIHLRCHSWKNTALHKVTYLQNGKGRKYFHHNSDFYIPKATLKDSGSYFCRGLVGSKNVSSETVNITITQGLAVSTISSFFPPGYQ

Row | fold less binding than other variants [6] [fold] | Substance | Kd [1] [µM] | Kd [2] [µM] | Kd [3] [µM] | Kd [4] [µM] | Kd [5] [µM]
1 |  | CAP256-VRC26.25 IgG1 | 3.9 | 2.4 | 5.6 | 5.7 | 6.6
2 |  | CAP256-VRC26.25 IgG3*01 | 3.1 | 2.2 | 1 | 3.9 | 4.6
3 |  | CAP256-VRC26.25 IgG3*17 | 4.9 | 4.1 | 1 | 2 | 4.5
4 |  | CAP256-VRC26.29 IgG1 (from UniProt P01857) | 4.5 | 3.6 | 5.5 | 5.2 | 5.4
5 |  | CAP256-VRC26.29 IgG3*01 (from UniProt P01860) | 4.4 | 2.6 | 1.3 |  | 
6 |  | CAP256-VRC26.29 IgG3*01m (from UniProt P01860) | 3.9 | 2.7 | 1.4 |  | 
7 |  | CAP256-VRC26.29 IgG3*17 (from UniProt P01860) | 4.5 | 2.4 | 1.3 | 2.9 | 4.1
8 | 1.7 to 1.9 | FcγRIIIa |  |  |  |  | 
